Data from US20090275081A1.

Columns and labels:
[1] = molecular target: streptavidin agarose beads (ImmunoPure streptavidin coated beads, Pierce) (UniProt P22629); experiment: pull-down on streptavidin agarose beads, Western blot
[2] = molecular target: streptavidin agarose beads (ImmunoPure streptavidin coated beads, Pierce) (UniProt P22629); experiment: pull-down of 3.5 ug purified protein on streptavidin agarose beads, Western blot with SA HRP
[3] = molecular target: carcinoembryonic antigen (CEA) on LS174T-CEA+ human colon carcinoma cells (human) (UniProt P06731); experiment: flow cytometry on live LS174T-CEA+ cells, detected with Alexa Fluor 488 streptavidin; percent positive staining
UniProt P06731, sequence (P06731 35-702): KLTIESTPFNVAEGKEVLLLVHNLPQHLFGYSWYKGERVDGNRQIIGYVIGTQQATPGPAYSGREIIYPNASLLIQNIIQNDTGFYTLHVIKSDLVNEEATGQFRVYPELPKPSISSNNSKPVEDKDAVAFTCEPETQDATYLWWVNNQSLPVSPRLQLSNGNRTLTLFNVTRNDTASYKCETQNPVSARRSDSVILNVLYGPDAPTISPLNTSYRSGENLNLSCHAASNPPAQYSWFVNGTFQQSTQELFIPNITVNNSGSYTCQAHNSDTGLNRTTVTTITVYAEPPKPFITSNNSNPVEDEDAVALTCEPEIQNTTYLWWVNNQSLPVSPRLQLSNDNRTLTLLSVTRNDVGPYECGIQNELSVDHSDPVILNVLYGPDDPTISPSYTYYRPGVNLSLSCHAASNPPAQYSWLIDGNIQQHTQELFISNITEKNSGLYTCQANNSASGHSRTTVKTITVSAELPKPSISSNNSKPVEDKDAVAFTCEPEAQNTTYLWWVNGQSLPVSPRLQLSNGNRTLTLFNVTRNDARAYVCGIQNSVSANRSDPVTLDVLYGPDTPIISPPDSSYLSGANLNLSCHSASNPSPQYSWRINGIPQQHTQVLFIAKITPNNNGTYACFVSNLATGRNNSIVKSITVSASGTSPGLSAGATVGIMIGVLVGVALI

[4] = molecular target: carcinoembryonic antigen (CEA) on LS174T-CEA+ human colon carcinoma cells (human) (UniProt P06731); experiment: flow cytometry on live LS174T-CEA+ cells, detected with Qdot655SA; percent positive staining

UniProt P22629, sequence (P22629 37-163 limits assumed): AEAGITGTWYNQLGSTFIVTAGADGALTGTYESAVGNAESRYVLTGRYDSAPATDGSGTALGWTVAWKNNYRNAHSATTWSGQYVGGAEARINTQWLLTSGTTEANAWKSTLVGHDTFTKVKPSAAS

## Db-BP15-His (biotinylated anti-CEA T84.66 diabody with 15 aa biotin acceptor peptide followed by 6xHis tag)
[1]
  percent unbound: 10%
[2]
  Binding with streptavidin agarose (%): 90%
[3]
  LS174T binding (%), Streptavidin Alexa: 56%
[4]
  LS174T binding (%), Qdot streptavidin: 41%

## Db-BD123 (biotinylated anti-CEA T84.66 diabody fused to the 123 aa biotin acceptor domain of P. shermanii)
[2]
  Binding with streptavidin agarose (%): 95%
[3]
  LS174T binding (%), Streptavidin Alexa: 11.7%
[4]
  LS174T binding (%), Qdot streptavidin: 17.7%
